How the values were obtained:
Assay type in all cases: in vivo
C57/BL6 mice = experiment: Example 34: EPO mRNA in buffer IM or SC in mice, serum EPO (Table 60); settings: dose 100 μg, 13 hours post injection
Description: Mice were intramuscularly or subcutaneously injected with 50 μl of the modified human EPO mRNA (h-EPO), modified luciferase mRNA (Luc) or the formulation buffer (F.Buffer) as described in the dosing chart Table 60. 13 hours post injection blood was collected and serum was analyzed to determine the amount human EPO for each mouse or rat.

mice [1] = experiment: Example 42A: G-CSF/EPO mRNA in buffer IM in mice, serum protein at 13 hours (Table 67); settings: IM 100 ug
Description: The mice were bled at 13 hours after the injection to determine the concentration of the human polypeptide in serum in pg/mL (G-CSF groups measured human G-CSF in mouse serum and EPO groups measured human EPO in mouse serum).

mice [2] = experiment: Example 65: G-CSF/EPO mRNA in saline in mice, serum protein at 13 hours (Table 97); settings: 100 ug, 100 μl/mouse, F. buffer, 13 hours after injection; for Average Protein Product, serum (human G-CSF): G-CSF group
Description: The mice were bled at 13 hours after the injection to determine the concentration of the human polypeptide in serum in pg/mL. (G-CSF groups measured human G-CSF in mouse serum and EPO groups measured human EPO in mouse serum).

rats = experiment: Example 17: LNP IV, IM, SC in rats, serum EPO/G-CSF ELISA (Table 34); settings: for EPO / G-CSF Serum Concentration: LNP 0.05 mg/kg
Description: (§1) Formulations, listed in Table 33, were characterized by particle size, zeta potential, and encapsulation.
LNP formulations, shown in Table 33 (above), were administered to rats (n=5) intravenously (IV), intramuscularly (IM) or subcutaneously (SC) at a single modified mRNA dose of 0.05 mg/kg. A control group of rats (n=4) was untreated. […] The rats administered EPO modified mRNA intravenously were also bled at 7 days.

[3] = system: non-human primates (cynomolgus monkey); experiment: Example 21: LNP IV in non-human primates, serum EPO/G-CSF ELISA (Table 37); settings: for Average Serum Concentration / Female NHP Serum Concentration / Male NHP Serum Concentration: 0.05 mg/kg IV
Description: as §1
LNP formulations, shown in Table 33 (above), were administered to non-human primates (NHP) (cynomolgus monkey) (n=2) as a bolus intravenous injection (IV) over approximately 30 seconds using a hypodermic needle, which may be attached to a syringe/abbocath or butterfly if needed. The NHP were administered a single modified mRNA IV dose of 0.05 mg/kg of EPO or G-CSF or 0.005 mg/kg of EPO in a dose volume of 0.5 mL/kg. The NHPs were bled 5-6 days before dosing with the modified mRNA LNP formulations to determine protein expression in the serum and a baseline complete blood count. After administration with the modified mRNA formulation the NHP were bled at 8, 24, 48 and 72 hours to determined protein expression. At 24 and 72 hours after administration the complete blood count of the NHP was also determined. Protein expression of G-CSF and EPO was determined by ELISA. Urine from the NHPs was collected over the course of the entire experiment and analyzed to evaluate clinical safety. Samples were collected from the NHPs after they were administered with G-CSF or EPO modified mRNA formulations to determine protein expression using ELISA. Clinical chemistry, hematology, urinalysis and cytokines of the non-human primates were also analyzed.

[4] = system: non-human primates (cynomolgus monkey); experiment: Example 22: LNP IV in non-human primates, serum G-CSF/EPO ELISA (Tables 38, 39)
Description: LNP formulations, shown in Table 33 (above), were administered to non-human primates (NHP) (cynomolgus monkey) (n=2) as intravenous injection (IV). The NHP were administered a single modified mRNA IV dose of 0.5 mg/kg, 0.05 mg/kg or 0.005 mg/kg of G-CSF or EPO in a dose volume of 0.5 mL/kg. The NHPs were bled before dosing with the modified mRNA LNP formulations to determine protein expression in the serum and a baseline complete blood count. After administration with the G-CSF modified mRNA formulation the NHP were bled at 8, 24, 48 and 72 hours to determined protein expression. After administration with the EPO modified mRNA formulation the NHP were bled at 8, 24, 48, 72 hours and 7 days to determined protein expression.
Samples collected from the NHPs after they were administered with G-CSF or EPO modified mRNA formulations were analyzed by ELISA to determine protein expression. Neutrophil and reticulocyte count was also determined pre-dose, 24 hours, 3 days, 7 days, 14 days and 18 days after administration of the modified G-CSF or EPO formulation.

[5] = G-CSF group: human G-CSF in mouse serum

Luciferase: luciferase mRNA, SEQ ID NO: 14, Cap1, fully modified with 5-methylcytosine and pseudouridine
Average Level in serum (human EPO) (C57/BL6 mice; mice IM): 0 pg/mL | Average Level in serum (human EPO) (C57/BL6 mice; mice SC): 26.7 pg/mL | Average Protein Product, serum (mice [1]; EPO group: human EPO in mouse serum): 15.0 pg/mL | Average Protein Product, serum (mice [1]; [5]): 0.5 pg/mL | Average Protein Product, serum (human EPO) (mice [2]; EPO group): 26.7 pg/mL | Average Protein Product, serum (human G-CSF) (mice [2]): 0 pg/mL

B1: G-CSF: modified mRNA encoding human G-CSF, SEQ ID NO: 4, Cap1, fully modified with 5-methylcytosine and pseudouridine; LNP-formulated in Examples 16-22 (nucleic acid)
chain: GGGAAAUAAGAGAGAAAAGAAGAGUAAGAAGAAAUAUAAGAGCCACCAUGGCCGGUCCCGCGACCCAAAGCCCCAUGAAACUUAUGGCCCUGCAGUUGCUGCUUUGGCACUCGGCCCUCUGGACAGUCCAAGAAGCGACUCCUCUCGGACCUGCCUCAUCGUUGCCGCAGUCAUUCCUUUUGAAGUGUCUGGAGCAGGUGCGAAAGAUUCAGGGCGAUGGAGCCGCACUCCAAGAGAAGCUCUGCGCGACAUACAAACUUUGCCAUCCCGAGGAGCUCGUACUGCUCGGGCACAGCUUGGGGAUUCCCUGGGCUCCUCUCUCGUCCUGUCCGUCGCAGGCUUUGCAGUUGGCAGGGUGCCUUUCCCAGCUCCACUCCGGUUUGUUCUUGUAUCAGGGACUGCUGCAAGCCCUUGAGGGAAUCUCGCCAGAAUUGGGCCCGACGCUGGACACGUUGCAGCUCGACGUGGCGGAUUUCGCAACAACCAUCUGGCAGCAGAUGGAGGAACUGGGGAUGGCACCCGCGCUGCAGCCCACGCAGGGGGCAAUGCCGGCCUUUGCGUCCGCGUUUCAGCGCAGGGCGGGUGGAGUCCUCGUAGCGAGCCACCUUCAAUCAUUUUUGGAAGUCUCGUACCGGGUGCUGAGACAUCUUGCGCAGCCGUGAAGCGCUGCCUUCUGCGGGGCUUGCCUUCUGGCCAUGCCCUUCUUCUCUCCCUUGCACCUGUACCUCUUGGUCUUUGAAUAAAGCCUGAGUAGGAAG
modifications: Cap1, 5-methylcytosine, pseudouridine
Average Protein Product, serum (mice [1]; [5]): 19.8 pg/mL | protein expression detectable out to (rats; IV): 7 days | EPO / G-CSF Serum Concentration (rats; IM, 2 hours): 1620.4 pg/mL | EPO / G-CSF Serum Concentration (rats; IM, 8 hours): 7910.4 pg/mL | EPO / G-CSF Serum Concentration (rats; IM, 24 hours): 893.3 pg/mL | EPO / G-CSF Serum Concentration (rats; IM, 48 hours): OSC | EPO / G-CSF Serum Concentration (rats; IM, 5 days): OSC | EPO / G-CSF Serum Concentration (rats; IV, 2 hours): 31,331.9 pg/ml | EPO / G-CSF Serum Concentration (rats; IV, 8 hours): 70,532.4 pg/ml | EPO / G-CSF Serum Concentration (rats; IV, 24 hours): 5,738.6 pg/ml | EPO / G-CSF Serum Concentration (rats; IV, 48 hours): 233.8 pg/mL | EPO / G-CSF Serum Concentration (rats; IV, 5 days): 60.4 pg/mL | EPO / G-CSF Serum Concentration (rats; SC, 2 hours): 80.3 pg/mL | EPO / G-CSF Serum Concentration (rats; SC, 8 hours): 164.2 pg/mL | EPO / G-CSF Serum Concentration (rats; SC, 24 hours): OSC | EPO / G-CSF Serum Concentration (rats; SC, 48 hours): OSC | EPO / G-CSF Serum Concentration (rats; SC, 5 days): OSC | protein expression detectable to (rats; subcutaneous and intramuscular): at least 8 hours | Average Serum Concentration ([3]; 8 hours): 2,506 pg/ml | Female NHP Serum Concentration ([3]; 8 hours): 3289 pg/mL | Male NHP Serum Concentration ([3]; 8 hours): 1722 pg/mL | Average Serum Concentration ([3]; 24 hours): 515 pg/mL | Female NHP Serum Concentration ([3]; 24 hours): 722 pg/mL | Male NHP Serum Concentration ([3]; 24 hours): 307 pg/mL | Average Serum Concentration ([3]; 48 hours): 0 pg/mL | Female NHP Serum Concentration ([3]; 48 hours): 0 pg/mL | Male NHP Serum Concentration ([3]; 48 hours): 0 pg/mL | Average Serum Concentration ([3]; 72 hours): 0 pg/mL | Female NHP Serum Concentration ([3]; 72 hours): 0 pg/mL | Male NHP Serum Concentration ([3]; 72 hours): 0 pg/mL | Average Serum Concentration ([3]; Pre-bleed): 0 pg/mL | Female NHP Serum Concentration ([3]; Pre-bleed): 0 pg/mL | Male NHP Serum Concentration ([3]; Pre-bleed): 0 pg/mL | protein expression detectable out to ([3]; NHP IV, 0.05 mg/kg): 24 h | Average Protein Product, serum (human G-CSF) (mice [2]): 45 pg/mL | Female NHP Serum G-CSF / EPO Concentration ([4]; 0.005 mg/kg IV, 8 hours): 559 pg/mL | Male NHP Serum G-CSF / EPO Concentration ([4]; 0.005 mg/kg IV, 8 hours): 700 pg/mL | Female NHP Serum G-CSF / EPO Concentration ([4]; 0.005 mg/kg IV, 24 hours): 155 pg/mL | Male NHP Serum G-CSF / EPO Concentration ([4]; 0.005 mg/kg IV, 24 hours): <39 pg/mL | Female NHP Serum G-CSF / EPO Concentration ([4]; 0.005 mg/kg IV, 48 hours): <39 pg/mL | Male NHP Serum G-CSF / EPO Concentration ([4]; 0.005 mg/kg IV, 48 hours): <39 pg/mL | Female NHP Serum G-CSF / EPO Concentration ([4]; 0.005 mg/kg IV, 72 hours): <39 pg/mL | Male NHP Serum G-CSF / EPO Concentration ([4]; 0.005 mg/kg IV, 72 hours): <39 pg/mL | Female NHP Serum G-CSF / EPO Concentration ([4]; 0.005 mg/kg IV, Pre-bleed): <39 pg/mL | Male NHP Serum G-CSF / EPO Concentration ([4]; 0.005 mg/kg IV, Pre-bleed): <39 pg/mL | Female NHP Serum G-CSF / EPO Concentration ([4]; 0.05 mg/kg IV, 8 hours): 3,289 pg/ml | Male NHP Serum G-CSF / EPO Concentration ([4]; 0.05 mg/kg IV, 8 hours): 1,722 pg/ml | Female NHP Serum G-CSF / EPO Concentration ([4]; 0.05 mg/kg IV, 24 hours): 722 pg/mL | Male NHP Serum G-CSF / EPO Concentration ([4]; 0.05 mg/kg IV, 24 hours): 307 pg/mL | Female NHP Serum G-CSF / EPO Concentration ([4]; 0.05 mg/kg IV, 48 hours): <39 pg/mL | Male NHP Serum G-CSF / EPO Concentration ([4]; 0.05 mg/kg IV, 48 hours): <39 pg/mL | Female NHP Serum G-CSF / EPO Concentration ([4]; 0.05 mg/kg IV, 72 hours): <39 pg/mL | Male NHP Serum G-CSF / EPO Concentration ([4]; 0.05 mg/kg IV, 72 hours): <39 pg/mL | Female NHP Serum G-CSF / EPO Concentration ([4]; 0.05 mg/kg IV, Pre-bleed): <39 pg/mL | Male NHP Serum G-CSF / EPO Concentration ([4]; 0.05 mg/kg IV, Pre-bleed): <39 pg/mL | Female NHP Serum G-CSF / EPO Concentration ([4]; 0.5 mg/kg IV, 8 hours): 43,525 pg/ml | Male NHP Serum G-CSF / EPO Concentration ([4]; 0.5 mg/kg IV, 8 hours): 43,594 pg/ml | Female NHP Serum G-CSF / EPO Concentration ([4]; 0.5 mg/kg IV, 24 hours): 11,374 pg/ml | Male NHP Serum G-CSF / EPO Concentration ([4]; 0.5 mg/kg IV, 24 hours): 3,628 pg/ml | Female NHP Serum G-CSF / EPO Concentration ([4]; 0.5 mg/kg IV, 48 hours): 1,100 pg/ml | Male NHP Serum G-CSF / EPO Concentration ([4]; 0.5 mg/kg IV, 48 hours): 833 pg/mL | Female NHP Serum G-CSF / EPO Concentration ([4]; 0.5 mg/kg IV, 72 hours): <39 pg/mL | Male NHP Serum G-CSF / EPO Concentration ([4]; 0.5 mg/kg IV, 72 hours): 306 pg/mL | Female NHP Serum G-CSF / EPO Concentration ([4]; 0.5 mg/kg IV, Pre-bleed): <39 pg/mL | Male NHP Serum G-CSF / EPO Concentration ([4]; 0.5 mg/kg IV, Pre-bleed): <39 pg/mL | protein expression not detected beyond ([4]; NHP IV): ≤ 72 h

From US20190142971A1, “FORMULATION AND DELIVERY OF MODIFIED NUCLEOSIDE, NUCLEOTIDE, AND NUCLEIC ACID COMPOSITIONS” (ModernaTX, Inc., priority 2013, published 2019)
